Where a name gives a salt, the structure may show the parent alone. No end group written: not given here.
Experiments:
[1] = TNBS assay, acidic hydrolysis of the cis-aconityl linkage; type: physicochemical
Protocol: TNBS (2,4,6-trinitrobenzene sulfonic acid) assay was performed in this example to analyze the acidic hydrolysis of the cis-aconityl linkage in the polypeptide-based long chain copolymer in conditions of different pH values. TNBS reacts with primary amines to yield a soluble orange colored product. Since PEG3400 released from hydrolyzed PEG3400-aconitic acid carries a free amine group at the end, the hydrolysis level of PEG3400-aconitic acid at different pH values is determined based on the amount of the colored product formed in TNBS assay. PEG3400-aconitic acid (2 mg/ml) was first dissolved in deionized water with a pH value of 5.0, 6.5, or 7.4 for hydrolysis. The hydrolysis reactions of 3 hours, 6 hours, 12 hours, and 24 fours were stopped by adjusting the pH value of the PEG3400-aconitic acid hydrolysate solutions to 8.2 and freezing. Sodium bicarbonate was added to the abovementioned hydrolysate solutions to a final concentration of 0.1 M (pH 8.2), and a 5% w/v TNBS solution was then added for reaction at 37° C. for 1 hour. The reaction was terminated using 1.0 N HCl, so that the volume ratio of the PEG3400-aconitic acid hydrolysate solution, the TNBS solution, and HCl was 4:2:1. Absorbance of the reaction-terminated solutions at 335 nm was measured with an enzyme-linked immunosorbent assay (ELISA) reader (Victor X3 2030 Multilabel Reader, PerkinElmer, Waltham, Mass., USA). According to the standard curve obtained from amine samples with known concentration, free amine group of PEG3400 in the reaction-terminated solutions was quantified and the hydrolysis level of PEG3400-aconitic acid at each pH was calculated.

[2] = system: human breast adenocarcinoma cells MDA-MB-231; experiment: Cell viability assay (MTS assay), anti-tumor activity; type: cell-based; conditions: 10 μg/ml DOX equivalent, 24 hours treatment
Protocol: The anti-tumor activity of the drug-loaded polypeptide-based nanocarrier with protective shell of the present invention was evaluated in this example by cell viability assay (MTS assay) on human breast adenocarcinoma cells MDA-MB-231 cells. The cells were seeded in a 96-well plate (5×10^3 cells/well) and cultured in L-15 medium supplemented with 10% FBS and 1% penicillin and streptomycin at 37° C. for 1 day. Next, the medium was removed, and cells were treated with 100 μl L-15 medium containing DOX.HCl, the DOX-loaded polypeptide-based nanocarriers with protective shell of calcium phosphate and with LyP-1 peptide (M-DOX NP w/LyP-1), or the DOX-loaded polypeptide-based nanocarriers with protective shell of calcium phosphate and without LyP-1 peptide (M-DOX NP w/o LyP-1) at concentrations equivalent to 10 μg/ml DOX for 24 hours. The cells were rinsed with PBS 2 times and incubated with L-15 medium supplemented with 10% FBS and 1% penicillin and streptomycin at 37° C. for 24 hours, 48 hours, or 72 hours. To carry out the cell viability assay, the medium was first discarded from the 96-well plate, 10 μl MTS solution and 90 μl L-15 medium were added for incubation at 37° C. for 2.5 hours, and the solution was transferred to a new 96-well plate for measurement of light absorption at 490 nm. The assay was repeated 3 times.

Compound	breakage of the cis-aconityl linkage ([1]; pH 5, within 12 hours)	breakage of the cis-aconityl linkage ([1]; pH 6.5, within 12 hours)	breakage of the cis-aconityl linkage ([1]; pH 6.5, within 24 hours)	breakage of the cis-aconityl linkage ([1]; pH 7.4, within 12 hours)	viability of the breast adenocarcinoma cells ([2]; kept incubated for 72 hours)	viability of the breast adenocarcinoma cells ([2]; first time point, post-incubation time not given)
PEG3400-aconityl linkage-polypeptide E15-H10-L10 (EEEEEEEEEEEEEEEHHHHHHHHHHLLLLLLLLLL; also: PEG3400 via aconityl linkage, site not given here) [polypeptide-based long chain copolymer]	43.33%	13.28%	21%	about 1.97%		
COc1cccc2c1C(=O)c1c(O)c3c(c(O)c1C2=O)C[C@@](O)(C(=O)CO)C[C@@H]3O[C@H]1C[C@H](N)[C@H](O)[C@H](C)O1 [DOX.HCl, doxorubicin hydrochloride]					5.4%	14.3%
